Results from US20090197330A1 (BIOMEDICS, published 2009).
Residue numbers refer to the chain shown, from its start.

T1: human CD20 antigen (human, UniProt P11836 1-297)
T1 construct: whole, on cells; also called CD20/CHO cells; CD20 on Raji cells
T1 sequence (looked up): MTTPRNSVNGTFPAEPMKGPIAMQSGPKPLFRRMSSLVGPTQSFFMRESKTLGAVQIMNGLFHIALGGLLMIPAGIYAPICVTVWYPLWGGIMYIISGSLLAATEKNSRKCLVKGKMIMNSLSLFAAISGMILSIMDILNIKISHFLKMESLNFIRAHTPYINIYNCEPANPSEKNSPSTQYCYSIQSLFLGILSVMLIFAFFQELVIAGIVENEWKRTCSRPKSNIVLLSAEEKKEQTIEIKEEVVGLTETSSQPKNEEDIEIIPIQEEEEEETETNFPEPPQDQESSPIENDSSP

B1: murine anti-CD20 monoclonal antibody 1K1402 (antibody, V domains shown)
VH: QVQLQQPGAELVKPGASVKMSCKASGFTFTSYNMHWVKQTPGQGLEWIGGIYPGNGDTSYNQKFKGKATLTADKSSSTAYMQLSSLTSEDSAVYYCARFYYYGSMGAMDYWGQGTSVTVSS
VL: QIVLSQSPAILSASPGEKVTMTCRASSSVSYMHWYQQKPGSSPKPWIYATSNLASGVPARFSGSGSGTSYSLTITRVEAEDAATYYCQQWTFNPPTFGAGTKLELK
notes: Mouse monoclonal antibody from a hybridoma
B2: murine anti-CD20 monoclonal antibody 1K1228 (antibody, V domains shown)
VH: QVQLQQPGAELVKPGASVKVSCKASGFTFTSYNLHWVKQTPGQGLVWIGAIYPGNGDTSYNQKFRGKATLTADISSSTAYMQLSSLTSEDSAVYYCARYYYGYDAMDYWGQGTSVTVSS
VL: EIILTQSPTTMAASPGEKITITCSASSSISSYYLRWYQQKPGFSPKVLIYRTSNLASGVPARFSGSGSGTSYSLTIGTMEAEDVATYYCQQGNTVPLTFGSGTKLEIK
notes: Mouse monoclonal antibody from a hybridoma, purified on protein G
B3: chimeric anti-CD20 monoclonal antibody c1K1791 (antibody, V domains shown)
VH: QIQLVQSGPELKKPGETVKISCKASGYTFTNFGVNWVKQAPGKGLKWMGWINTYTGEPSYADDFKGRFAFSLEASANTAYLQINNLKNDDMSTYFCTRRTNYYGTSYYYAMDYWGQGTSVTVSS
VL: STVMTQTPKFLLVSAGDRVTITCKASQSVSNDVAWYQQKPGQSPKVLIYFASNRYTGVPDRFTGSGYGTDFTFTINTVQAEDLAVYFCQQDYSSPLTFGAGTKLELK
notes: Murine variable regions fused to human immunoglobulin H chain and L chain (kappa) constant regions of vector pNOW-Ab
B4: chimeric anti-CD20 monoclonal antibody c1K0924 (antibody, V domains shown)
VH: QVQLQQPGAELVKPGASVKMSCKASGYTFTSYNIHWVKQTPGQGLEWIGAIYPGNGDTSYNQKFKGKATLTSDKSSSTAYMQLSSLTSEDSAVYYCARMSTMITGFDYWGQGTTLTVSS
VL: B1 VL with K38R, S71Y, L72F, T75S, T91N, F92S, F97H, A99G, L105I
notes: as for B3
B5: chimeric anti-CD20 monoclonal antibody c1K1736 (antibody, V domains shown)
VH: QVQLQQPGAELVKPGASVKMSCKASGYTFTTYNLHWVKQTPGQGLEWIGGIYPGNGDTSYNQKFKVKATLTADKSSNTAYMQLSSLTSEDSAVYYCARWIYYGNYEGTLDYWGQGTSVTVSS
VL: B1 VL with A13S, H33L, K44E, S64G, T75S, A99G, L105I
notes: as for B3
B6: chimeric anti-CD20 monoclonal antibody c1K1402 (antibody, V domains shown)
VH: B1 VH
VL: B1 VL
notes: as for B3
B7: chimeric anti-CD20 monoclonal antibody c1K1712 (antibody, V domains shown)
VH: QVQLQQPGAELVKPGASVKMSCKASGFTFTSYNLHWVKQTPGQGLEWIGAIYPGSGDTSYNQQFKGKATLTADKSSNTAYMQLNSLTSEDSAVYCCARSAMISTGNWYFDYWGQGTTLTVSS
VL: B1 VL with H33D, T75S, A82T, A99S, L105I
notes: as for B3
B8: Rituximab (c2B8) (antibody, V domains shown)
VH: QVQLQQPGAELVKPGASVKMSCKASGYTFTSYNMHWVKQTPGRGLEWIGAIYPGNGDTSYNQKFKGKATLTADKSSSTAYMQLSSLTSEDSAVYYCARSTYYGGDWYFNVWGAGTTVTVSA
VL: B1 VL with M32I, Y35F, A59V, T75S, F92S, A99G, L105I
B9: chimeric anti-CD20 monoclonal antibody c1K1228 (antibody, V domains shown)
VH: B2 VH
VL: B2 VL
notes: as for B3
B10: chimeric anti-CD20 monoclonal antibody c1K1422 (antibody, V domains shown)
VH: QVQLQQPGAELVKPGASVKMSCRASGYTFTNYNMHWIKQTPGQGLEWIGAIYPGSGDTSYNRKFKGKATLTADTSSSTAYMQFSSLTSADSAVYYCARFTYYYGGTYGAMDYWGQGTSVTVSL
VL: QIVLTQSPPIMSASLGEEITLTCSASSRVSYMLWYQQKSGTSPKLLIYSTSNLASGVPSRFSGSGSGTFYSLTISSVEAEDAADYYCHQWTSNPCTFGGGTKLEIK
notes: as for B3
B11: chimeric anti-CD20 monoclonal antibody c1K1782 (antibody, V domains shown)
VH: QVQLQQSGAELAKPGASVKMSCKASGYTFTSYWMHWVKQRPGQGLEWIGYITPSTGYTDYNKKFKDKATLTADRSSSTAYMHLSSLTSEDSAVYYCARSGPYFDVWGAGTTVTVSS
VL: DILLTQSPAILFVSPGERVSLSCRASQNIGTSIHWYQQRTNGSPRLLIKYASESFSGIPSRFSGSGSGTDFTLSINSVESEDIADYYCQQSNSWPFTFGSGTKLEIK
notes: as for B3

biological target: T1, human CD20 antigen; assay: SB cell-ELISA, antibody at 320 ng/ml
Source text: (§1) Several murine anti-CD20 monoclonal antibodies and 2B8 were reacted by using 96-well plates to which the SB cells, Raji cells, CD20/CHO cells and CD20 CHO parent cell line were adhered.

In order of falling A492:
1. B2  0.931 A492
2. B1  0.4 A492

biological target: T1, human CD20 antigen; assay: CD20/CHO cell-ELISA, antibody at 3 ng/ml
Source text: as §1

In order of rising A492:
1. B1  0.174 A492
2. B2  0.265 A492

biological target: T1, human CD20 antigen; assay: Raji cell-ELISA, antibody at 32 ng/ml
Source text: as §1

In order of falling A492:
1. B2  0.326 A492
2. B1  0.102 A492

biological target: T1, human CD20 antigen; assay: SB cell-ELISA, antibody at 1000 ng/ml
Source text: as §1

In order of rising A492:
1. B1  0.763 A492
2. B2  1.26 A492

biological target: T1, human CD20 antigen; assay: CD20/CHO cell-ELISA, antibody at 32 ng/ml
Source text: as §1

In order of rising A492:
1. B1  0.824 A492
2. B2  1.27 A492

biological target: T1, human CD20 antigen; assay: Raji cell-ELISA, antibody at 1000 ng/ml
Source text: as §1

In order of falling A492:
1. B2  1.68 A492
2. B1  1.23 A492

biological target: T1, human CD20 antigen; assay: SB cell-ELISA, antibody at 10 ng/ml
Source text: as §1

In order of rising A492:
1. B1  0.066 A492
2. B2  0.082 A492

biological target: T1, human CD20 antigen; assay: CD20/CHO cell-ELISA, antibody at 32 ng/ml; remark: another data set of the same source
Source text: (§2) The prepared 8 kinds of chimeric anti-CD20 monoclonal antibodies were examined for reactivity to the human CD20 antigen by the CD20/CHO cell-ELISA. Rituximab (c2B8) was used as a positive control. The values measured in the cell-ELISA (A492) reflect intensity of the binding property.

In order of rising A492:
1. B4  0.724 A492
2. B10  0.912 A492
3. B11  1.02 A492
4. B8  1.14 A492
5. B3  1.46 A492
6. B5  1.55 A492
7. B9  1.58 A492
8. B6  1.62 A492
9. B7  1.68 A492

biological target: T1, human CD20 antigen; assay: Raji cell-ELISA, antibody at 320 ng/ml
Source text: as §1

In order of rising A492:
1. B1  0.525 A492
2. B2  1.17 A492

biological target: T1, human CD20 antigen; assay: Raji cell-ELISA, antibody at 10 ng/ml
Source text: as §1

In order of rising A492:
1. B1  0.061 A492
2. B2  0.148 A492

biological target: T1, human CD20 antigen; assay: SB cell-ELISA, antibody at 100 ng/ml
Source text: as §1

In order of rising A492:
1. B1  0.152 A492
2. B2  0.452 A492

biological target: T1, human CD20 antigen; assay: CD20/CHO cell-ELISA, antibody at 320 ng/ml
Source text: as §1

In order of rising A492:
1. B1  1.57 A492
2. B2  2.7 A492

biological target: T1, human CD20 antigen; assay: CD20/CHO cell-ELISA, antibody at 3 ng/ml; remark: another data set of the same source
Source text: as §2

In order of rising A492:
1. B10  0.151 A492
2. B11  0.169 A492
3. B4  0.186 A492
4. B8  0.226 A492
5. B3  0.276 A492
6. B9  0.289 A492
7. B5  0.32 A492
8. B6  0.349 A492
9. B7  0.359 A492

biological target: T1, human CD20 antigen; assay: CD20/CHO cell-ELISA, antibody at 1 ng/ml
Source text: as §2

In order of falling A492:
1. B7  0.145 A492
2. B5  0.122 A492
3. B9  0.12 A492
4. B6  0.116 A492
5. B3  0.108 A492
6. B4  0.094 A492
7. B8  0.088 A492
8. B10  0.077 A492
9. B11  0.074 A492

biological target: T1, human CD20 antigen; assay: CD20/CHO cell-ELISA, antibody at 10 ng/ml
Source text: as §2

In order of rising A492:
1. B10  0.357 A492
2. B4  0.391 A492
3. B11  0.505 A492
4. B8  0.536 A492
5. B9  0.701 A492
6. B6  0.737 A492
7. B3  0.745 A492
8. B5  0.748 A492
9. B7  0.793 A492

biological target: T1, human CD20 antigen; assay: SB cell-ELISA, antibody at 32 ng/ml
Source text: as §1

In order of rising A492:
1. B1  0.095 A492
2. B2  0.192 A492

biological target: T1, human CD20 antigen; assay: CD20/CHO cell-ELISA, antibody at 100 ng/ml
Source text: as §1

In order of rising A492:
1. B1  1.49 A492
2. B2  2.09 A492

biological target: T1, human CD20 antigen; assay: CD20/CHO cell-ELISA, antibody at 1000 ng/ml
Source text: as §1

In order of falling A492:
1. B2  3.06 A492
2. B1  1.88 A492

biological target: T1, human CD20 antigen; assay: CD20/CHO cell-ELISA, antibody at 100 ng/ml; remark: another data set of the same source
Source text: as §2

In order of falling A492:
1. B6  2.45 A492
2. B5  2.43 A492
3. B7  2.29 A492
4. B3  2.23 A492
5. B9  2.23 A492
6. B8  2.15 A492
7. B11  2.1 A492
8. B10  1.92 A492
9. B4  1.42 A492

biological target: T1, human CD20 antigen; assay: Raji cell-ELISA, antibody at 100 ng/ml
Source text: as §1

In order of rising A492:
1. B1  0.214 A492
2. B2  0.678 A492

biological target: T1, human CD20 antigen; assay: CD20/CHO cell-ELISA, antibody at 10 ng/ml; remark: another data set of the same source
Source text: as §1

In order of falling A492:
1. B2  0.572 A492
2. B1  0.389 A492
